In the RNAGym collection of RNA variant scans (doi:10.1093/nar/gkz1192):

B1: CPEB3 Ribozyme (parent)
chain: UAACAGGGGGCCACAGCAGAAGCGUUCACGUCGCAGCCCCUGUCAGAUUCUGGUGAAUCUGCGAAUUCUGCUGUAUAUCUC

Variants of: B1
Experiment: self-cleavage, relative activity (ratio to wild type); higher = more cleavage; in vitro, sequencing
Method in brief: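 Barcoded CPEB3 ribozyme mutants, produced by rounds of error-prone PCR, self-cleaved while being transcribed with T7 RNA polymerase for 5 hours at 37°C and during a subsequent 15 min DNase I step before EDTA was added. Sequencing of template-switched cDNA on Illumina gave cleaved and total reads, and DNA sequencing assigned barcodes to variants. Each variant's relative activity is its cleaved/total read fraction divided by the unmutated ribozyme's fraction, averaged across three batches. A variant needed a minimum of 5 reads.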

Question: With UAACAGGGGGCCGCAGCAGUAGCGUUCACGUCGCAGCCCCUGUCAGAUUCUGGUGAAUCUGCGAAUUCUGCUGUAUAUCUC [A13G A20U] as the variant, how does the self-cleavage read?
Answer: 0.28

Question: With UAACAGGGGGCCGCAGCAGAGGCGUUCACGUCGCAGCCCCUGUCAGAUUCUGGUGAAUCUGCGAAUUCUGCUGUAUAUCUC [A13G A21G] as the variant, how does the self-cleavage read?
Answer: 0.5

Question: With UAACAGGGGGCCGCAGCAGAUGCGUUCACGUCGCAGCCCCUGUCAGAUUCUGGUGAAUCUGCGAAUUCUGCUGUAUAUCUC [A13G A21U] as the variant, how does the self-cleavage read?
Answer: 0.35

Question: With UAACAGGGGGCCGCAGCAGAAGCGUUCCCGUCGCAGCCCCUGUCAGAUUCUGGUGAAUCUGCGAAUUCUGCUGUAUAUCUC [A13G A28C] as the variant, how does the self-cleavage read?
Answer: 0.43

Question: For UAACAGGGGGCCGCAGCAGAAGCGUUCGCGUCGCAGCCCCUGUCAGAUUCUGGUGAAUCUGCGAAUUCUGCUGUAUAUCUC [A13G A28G], which self-cleavage is on record?
Answer: 0.39

Question: For UAACAGGGGGCCGCAGCAGAAGCGUUCUCGUCGCAGCCCCUGUCAGAUUCUGGUGAAUCUGCGAAUUCUGCUGUAUAUCUC [A13G A28U], which self-cleavage is on record?
Answer: 0.54

Question: With UAACAGGGGGCCGCAGCAGAAGCGUUCACGUCGCCGCCCCUGUCAGAUUCUGGUGAAUCUGCGAAUUCUGCUGUAUAUCUC [A13G A35C] as the variant, how does the self-cleavage read?
Answer: 0.56

Question: With UAACAGGGGGCCGCAGCAGAAGCGUUCACGUCGCGGCCCCUGUCAGAUUCUGGUGAAUCUGCGAAUUCUGCUGUAUAUCUC [A13G A35G] as the variant, how does the self-cleavage read?
Answer: 0.92

Question: Which self-cleavage does the source give for UAACAGGGGGCCGCAGCAGAAGCGUUCACGUCGCUGCCCCUGUCAGAUUCUGGUGAAUCUGCGAAUUCUGCUGUAUAUCUC [A13G A35U] here?
Answer: 0.48

Question: With UAACAGGGGGCCGCAGCAGAAGCGUUCACGUCGCAGCCCCUGUCCGAUUCUGGUGAAUCUGCGAAUUCUGCUGUAUAUCUC [A13G A45C] as the variant, how does the self-cleavage read?
Answer: 0.34

Question: With UAACAGGGGGCCGCAGCAGAAGCGUUCACGUCGCAGCCCCUGUCGGAUUCUGGUGAAUCUGCGAAUUCUGCUGUAUAUCUC [A13G A45G] as the variant, how does the self-cleavage read?
Answer: 0.67

Question: For UAACAGGGGGCCGCAGCAGAAGCGUUCACGUCGCAGCCCCUGUCUGAUUCUGGUGAAUCUGCGAAUUCUGCUGUAUAUCUC [A13G A45U], which self-cleavage is on record?
Answer: 0.4

Question: With UAACAGGGGGCCGCAGCAGAAGCGUUCACGUCGCAGCCCCUGUCAGCUUCUGGUGAAUCUGCGAAUUCUGCUGUAUAUCUC [A13G A47C] as the variant, how does the self-cleavage read?
Answer: 0.57

Question: Which self-cleavage does the source give for UAACAGGGGGCCGCAGCAGAAGCGUUCACGUCGCAGCCCCUGUCAGGUUCUGGUGAAUCUGCGAAUUCUGCUGUAUAUCUC [A13G A47G] here?
Answer: 0.86

Question: For UAACAGGGGGCCGCAGCAGAAGCGUUCACGUCGCAGCCCCUGUCAGUUUCUGGUGAAUCUGCGAAUUCUGCUGUAUAUCUC [A13G A47U], which self-cleavage is on record?
Answer: 0.38

Question: With UAACAGGGGGCCGCAGCAGAAGCGUUCACGUCGCAGCCCCUGUCAGAUUCUGGUGGAUCUGCGAAUUCUGCUGUAUAUCUC [A13G A56G] as the variant, how does the self-cleavage read?
Answer: 0.73

Question: For UAACAGGGGGCCGCAGCAGAAGCGUUCACGUCGCAGCCCCUGUCAGAUUCUGGUGUAUCUGCGAAUUCUGCUGUAUAUCUC [A13G A56U], which self-cleavage is on record?
Answer: 0.42

Question: With UAACAGGGGGCCGCAGCAGAAGCGUUCACGUCGCAGCCCCUGUCAGAUUCUGGUGACUCUGCGAAUUCUGCUGUAUAUCUC [A13G A57C] as the variant, how does the self-cleavage read?
Answer: 0.33

Question: Which self-cleavage does the source give for UAACAGGGGGCCGCAGCAGAAGCGUUCACGUCGCAGCCCCUGUCAGAUUCUGGUGAGUCUGCGAAUUCUGCUGUAUAUCUC [A13G A57G] here?
Answer: 0.72

Question: Which self-cleavage does the source give for UAACAGGGGGCCGCAGCAGAAGCGUUCACGUCGCAGCCCCUGUCAGAUUCUGGUGAUUCUGCGAAUUCUGCUGUAUAUCUC [A13G A57U] here?
Answer: 0.45

Question: With UAACAGGGGGCCGCAGCAGAAGCGUUCACGUCGCAGCCCCUGUCAGAUUCUGGUGAAUCUGCGCAUUCUGCUGUAUAUCUC [A13G A64C] as the variant, how does the self-cleavage read?
Answer: 0.46

Question: With UAACAGGGGGCCGCAGCAGAAGCGUUCACGUCGCAGCCCCUGUCAGAUUCUGGUGAAUCUGCGGAUUCUGCUGUAUAUCUC [A13G A64G] as the variant, how does the self-cleavage read?
Answer: 0.76

Question: Which self-cleavage does the source give for UAACAGGGGGCCGCAGCAGAAGCGUUCACGUCGCAGCCCCUGUCAGAUUCUGGUGAAUCUGCGUAUUCUGCUGUAUAUCUC [A13G A64U] here?
Answer: 0.32

Question: With UAACAGGGGGCCGCAGCAGAAGCGUUCACGUCGCAGCCCCUGUCAGAUUCUGGUGAAUCUGCGACUUCUGCUGUAUAUCUC [A13G A65C] as the variant, how does the self-cleavage read?
Answer: 0.56

Question: For UAACAGGGGGCCGCAGCAGAAGCGUUCACGUCGCAGCCCCUGUCAGAUUCUGGUGAAUCUGCGAGUUCUGCUGUAUAUCUC [A13G A65G], which self-cleavage is on record?
Answer: 0.41

Question: For UAACAGGGGGCCGCAGCAGAAGCGUUCACGUCGCAGCCCCUGUCAGAUUCUGGUGAAUCUGCGAUUUCUGCUGUAUAUCUC [A13G A65U], which self-cleavage is on record?
Answer: 0.31

Question: Which self-cleavage does the source give for UAACAGGGGGCCGCAGCAGAAGCGUUCACGUCGCAGCCCCUGUCAGAUUCUGGUGAAUCUGCGAAUUCUGCUGUCUAUCUC [A13G A75C] here?
Answer: 1.03

Question: For UAACAGGGGGCCGCAGCAGAAGCGUUCACGUCGCAGCCCCUGUCAGAUUCUGGUGAAUCUGCGAAUUCUGCUGUGUAUCUC [A13G A75G], which self-cleavage is on record?
Answer: 1.03

Question: For UAACAGGGGGCCGCAGCAGAAGCGUUCACGUCGCAGCCCCUGUCAGAUUCUGGUGAAUCUGCGAAUUCUGCUGUUUAUCUC [A13G A75U], which self-cleavage is on record?
Answer: 0.99

Question: For UAACAGGGGGCCGCAGCAGAAGCGUUCACGUCGCAGCCCCUGUCAGAUUCUGGUGAAUCUGCGAAUUCUGCUGUAUCUCUC [A13G A77C], which self-cleavage is on record?
Answer: 0.62

Question: Which self-cleavage does the source give for UAACAGGGGGCCGCAGCAGAAGCGUUCACGUCGCAGCCCCUGUCAGAUUCUGGUGAAUCUGCGAAUUCUGCUGUAUGUCUC [A13G A77G] here?
Answer: 0.69

Question: For UAACAGGGGGCCGCAGCAGAAGCGUUCACGUCGCAGCCCCUGUCAGAUUCUGGUGAAUCUGCGAAUUCUGCUGUAUUUCUC [A13G A77U], which self-cleavage is on record?
Answer: 0.92

Question: With UAACAGGGGGCCGAAGCAGAAGCGUUCACGUCGCAGCCCCUGUCAGAUUCUGGUGAAUCUGCGAAUUCUGCUGUAUAUCUC [A13G C14A] as the variant, how does the self-cleavage read?
Answer: 0.88

Question: With UAACAGGGGGCCGUAGCAGAAGCGUUCACGUCGCAGCCCCUGUCAGAUUCUGGUGAAUCUGCGAAUUCUGCUGUAUAUCUC [A13G C14U] as the variant, how does the self-cleavage read?
Answer: 0.78
